{"source": "paper PMC10975569", "molecules": {"B1": {"name": "pleurotolysin B (Δ48PlyB) (domain or fragment)", "chain": "SQAGDTLNDVIQDPTRRNKLINDNNLLKGIIMGRDGPVPSSRELIVRPDTLRAIINNRATIETTTMEAEFTETLMESNYNSASVKVSAPFITANSEYSESSSFKNTETEKSMYTSSRYLFPQGRIDFTTPDSGFDDVIKLSPQFTSGVQAALAKATGTEKREALQNLFQEYGHVFRTKVHIGGVLSAHTMETFSRSENETEVKQDVKAGLEGAVKGWGGGATAGHGNTQGTITTSQNRKLNVKYIVNGGDYTKIQNTEEWVASTNQSEHWRVIEVTEVTAVADLLPQPIRGQVKDLLKPLLGKWVDVEKVPGLESLPVSVYRPKGAIPAGWFWLGDTADASKALLVKPTLPARSGRNPALTSLHQGSGMTEQPFVDLPQYQYLSTYFGSFAHDTPPGSTLRGLRPDHVLPGRYEMHGDTISTAVYVTRPVDVPFPEDECFDLKSLVRVKLPGSGNPPKPRSALKKSMVLFDSGEK"}}, "key": {"[1]": {"biological_target": "T1, ostreolysin A6 (P. ostreatus) (UniProt P83467)", "T1 sequence": "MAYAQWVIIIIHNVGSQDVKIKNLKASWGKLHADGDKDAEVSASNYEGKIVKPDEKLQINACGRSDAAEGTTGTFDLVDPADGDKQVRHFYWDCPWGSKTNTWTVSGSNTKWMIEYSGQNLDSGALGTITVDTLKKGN"}, "[2]": {"biological_target": "heterolysin A (H. irregulare TC 32-1)"}}, "data": [{"molecule": "nudolysin B (Δ30NudB) (domain or fragment)", "values": [{"measurement": "time of 100% hemolysis of bovine red blood cells, pH 6.0; NudA 1, 0.1 and 0.01 µM, NudA:NudB 10:1 (0.7 to 48.8 min)", "setting": "nudolysin A (L. nuda)", "result": 48.8, "unit": "min"}, {"measurement": "time of 100% hemolysis of bovine red blood cells, pH 7.0; NudA 1 and 0.1 µM, NudA:NudB 10:1 (0.7 to 11.1 min); at 0.01 µM 100% hemolysis did not occur", "setting": "nudolysin A (L. nuda)", "result": 11.1, "unit": "min"}, {"measurement": "time of 100% hemolysis of bovine red blood cells, pH 8.0; NudA 1 µM, NudA:NudB 10:1; at 0.1 and 0.01 µM 100% hemolysis did not occur", "setting": "nudolysin A (L. nuda)", "result": 2, "unit": "min"}]}, {"molecule": "B1", "values": [{"measurement": "time of 100% hemolysis of bovine red blood cells, pH 6.0; OlyA6 1, 0.1 and 0.01 µM, OlyA6:PlyB 10:1 (0.7 to 2.7 min)", "setting": "[1]", "result": 2.7, "unit": "min"}, {"measurement": "time of 100% hemolysis of bovine red blood cells, pH 7.0; OlyA6 1, 0.1 and 0.01 µM, OlyA6:PlyB 10:1 (0.7 to 20.6 min)", "setting": "[1]", "result": 20.6, "unit": "min"}, {"measurement": "time of 100% hemolysis of bovine red blood cells, pH 8.0; OlyA6 1, 0.1 and 0.01 µM, OlyA6:PlyB 10:1 (0.7 to 26.4 min)", "setting": "[1]", "result": 26.4, "unit": "min"}, {"measurement": "time of 100% hemolysis of bovine red blood cells, pH 6.0; HetA 1, 0.1 and 0.01 µM, HetA:PlyB 10:1 (0.7 to 9.8 min)", "setting": "[2]", "result": 9.8, "unit": "min"}, {"measurement": "time of 100% hemolysis of bovine red blood cells, pH 7.0; HetA 1 and 0.1 µM, HetA:PlyB 10:1 (1.3 to 8.2 min); at 0.01 µM 100% hemolysis did not occur", "setting": "[2]", "result": 8.2, "unit": "min"}, {"measurement": "time of 100% hemolysis of bovine red blood cells, pH 8.0; HetA 1 and 0.1 µM, HetA:PlyB 10:1 (0.7 to 5.3 min); at 0.01 µM 100% hemolysis did not occur", "setting": "[2]", "result": 5.3, "unit": "min"}]}]}
